According to US20240261333A1, “NOVEL TARGETS FOR ENHANCING ANTI-TUMOR IMMUNITY” (THE BROAD INSTITUTE, INC., priority 2021, published 2024):

T1: B3GNT2 (Homo sapiens, UniProt Q9NY97)
T1 construct: The respective ORFs of candidate genes [CD274 (NM_014143), MCL1 (NM_021960), JUNB (NM_002229), and B3GNT2 (NM_006577)] were synthesized; expressed in transfected cells; host or cells: A375 melanoma cells (lentiviral ORF overexpression)
T1 sequence (Q9NY97 1-397): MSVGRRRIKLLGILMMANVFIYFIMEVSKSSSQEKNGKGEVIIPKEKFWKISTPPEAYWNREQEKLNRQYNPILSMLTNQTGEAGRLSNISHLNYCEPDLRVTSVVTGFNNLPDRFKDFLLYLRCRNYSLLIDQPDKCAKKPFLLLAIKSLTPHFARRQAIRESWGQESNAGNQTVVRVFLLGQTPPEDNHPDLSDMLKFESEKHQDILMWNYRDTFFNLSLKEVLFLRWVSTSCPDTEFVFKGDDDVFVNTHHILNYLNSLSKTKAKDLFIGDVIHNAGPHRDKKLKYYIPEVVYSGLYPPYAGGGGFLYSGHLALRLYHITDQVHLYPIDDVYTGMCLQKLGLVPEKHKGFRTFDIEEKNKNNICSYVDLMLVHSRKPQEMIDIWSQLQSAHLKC

B1: SDF4 (protein)
chain: RPANHSSTRERVANREENEILPPDHLNGVKLEMDGHLNRGFHQEVFLGKDLGGFDEDAEPRRSRRKLMVIFSKVDVNTDRKISAKEMQRWIMEKTAEHFQEAMEESKTHFRAVDPDGDGHVSWDEYKVKFLASKGHSEKEVADAIRLNEELKVDEETQEVLENLKDRWYQADSPPADLLLTEEEFLSFLHPEHSRGMLRFMVKEIVRDLDQDGDKQLSVPEFISLPVGTVENQQGQDIDDNWVKDRKKEFEELIDSNHDGIVTAEELESYMDPMNEYNALNEAKQMIAVADENQNHHLEPEEVLKYSEFFTGSKLVDYARSVHEEF
B2: RARS (protein)
chain: MDVLVSECSARLLQQEEEIKSLTAEIDRLKNCGCLGASPNLEQLQEENLKLKYRLNILRKSLQAERNKPTKNMINIISRLQEVFGHAIKAAYPDLENPPLLVTPSQQAKFGDYQCNSAMGISQMLKTKEQKVNPREIAENITKHLPDNECIEKVEIAGPGFINVHLRKDFVSEQLTSLLVNGVQLPALGENKKVIVDFSSPNIAKEMHVGHLRSTIIGESISRLFEFAGYDVLRLNHVGDWGTQFGMLIAHLQDKFPDYLTVSPPIGDLQVFYKESKKRFDTEEEFKKRAYQCVVLLQGKNPDITKAWKLICDVSRQELNKIYDALDVSLIERGESFYQDRMNDIVKEFEDRGFVQVDDGRKIVFVPGCSIPLTIVKSDGGYTYDTSDLAAIKQRLFEEKADMIIYVVDNGQSVHFQTIFAAAQMIGWYDPKVTRVFHAGFGVVLGEDKKKFKTRSGETVRLMDLLGEGLKRSMDKLKEKERDKVLTAEELNAAQTSVAYGCIKYADLSHNRLNDYIFSFDKMLDDRGNTAAYLLYAFTRIRSIARLANIDEEMLQKAARETKILLDHEKEWKLGRCILRFPEILQKILDDLFLHTLCDYIYELATAFTEFYDSCYCVEKDRQTGKILKVNMWRMLLCEAVAAVMAKGFDILGIKPVQRM
B3: DNAJB11 (protein)
chain: GRDFYKILGVPRSASIKDIKKAYRKLALQLHPDRNPDDPQAQEKFQDLGAAYEVLSDSEKRKQYDTYGEEGLKDGHQSSHGDIFSHFFGDFGFMFGGTPRQQDRNIPRGSDIIVDLEVTLEEVYAGNFVEVVRNKPVARQAPGKRKCNCRQEMRTTQLGPGRFQMTQEVVCDECPNVKLVNEERTLEVEIEPGVRDGMEYPFIGEGEPHVDGEPGDLRFRIKVVKHPIFERRGDDLYTNVTISLVESLVGFEMDITHLDGHKVHISRDKITRPGAKLWKKGEGLPNFDNNNIKGSLIITFDVDFPKEQLTEEAREGIKQLLKQGSVQKVYNGLQGY
B4: SSR1 (protein)
chain: VLFRGGPRGLLAVAQDLTEDEETVEDSIIEDEDDEAEVEEDEPTDLVEDKEEEDVSGEPEASPSADTTILFVKGEDFPANNIVKFLVGFTNKGTEDFIVESLDASFRYPQDYQFYIQNFTALPLNTVVPPQRQATFEYSFIPAEPMGGRPFGLVINLNYKDLNGNVFQDAVFNQTVTVIEREDGLDGETIFMYMFLAGLGLLVIVGLHQLLESRKRKRPIQKVEMGTSSQNDVDMSWIPQETLNQINKASPRRLPRKRAQKRSVGSDE
B5: SPRR2E (protein)
chain: MSYQQQQCKQPCQPPPVCPTPKCPEPCPPPKCPEPCPPPKCPQPCPPQQCQQKCPPVTPSPPCQPKCPPKSK
B6: HNRNPA1 (protein)
chain: SKSESPKEPEQLRKLFIGGLSFETTDESLRSHFEQWGTLTDCVVMRDPNTKRSRGFGFVTYATVEEVDAAMNARPHKVDGRVVEPKRAVSREDSQRPGAHLTVKKIFVGGIKEDTEEHHLRDYFEQYGKIEVIEIMTDRGSGKKRGFAFVTFDDHDSVDKIVIQKYHTVNGHNCEVRKALSKQEMASASSSQRGRSGSGNFGGGRGGGFGGNDNFGRGGNFSGRGGFGGSRGGGGYGGSGDGYNGFGNDGGYGGGGPGYSGGSRGYGSGGQGYGNQGSGYGGSGSYDSYNNGGGGGFGGGSGSNFGGGGSYNDFGNYNNQSSNFGPMKGGNFGGRSSGPYGGGGQYFAKPRNQGGYGGSSSSSSYGSGRRF
B7: DSTN (protein)
chain: ASGVQVADEVCRIFYDMKVRKCSTPEEIKKRKKAVIFCLSADKKCIIVEEGKEILVGDVGVTITDPFKHFVGMLPEKDCRYALYDASFETKESRKEELMFFLWAPELAPLKSKMIYASSKDAIKKKFQGIKHECQANGPEDLNRACIAEKLGGSLIVAFEGCPV
B8: ATXN2L (protein)
chain: MLKPQPLQQPSQPQQPPPTQQAVARRPPGGTSPPNGGLPGPLATSAAPPGPPAAASPCLGPVAAAGSGLRRGAEGILAPQPPPPQQHQERPGAAAIGSARGQSTGKGPPQSPVFEGVYNNSRMLHFLTAVVGSTCDVKVKNGTTYEGIFKTLSSKFELAVDAVHRKASEPAGGPRREDIVDTMVFKPSDVMLVHFRNVDFNYATKDKFTDSAIAMNSKVNGEHKEKVLQRWEGGDSNSDDYDLESDMSNGWDPNEMFKFNEENYGVKTTYDSSLSSYTVPLEKDNSEEFRQRELRAAQLAREIESSPQYRLRIAMENDDGRTEEEKHSAVQRQGSGRESPSLASREGKYIPLPQRVREGPRGGVRCSSSRGGRPGLSSLPPRGPHHLDNSSPGPGSEARGINGGPSRMSPKAQRPLRGAKTLSSPSNRPSGETSVPPPPAVGRMYPPRSPKSAAPAPISASCPEPPIGSAVPTSSASIPVTSSVSDPGVGSISPASPKISLAPTDVKELSTKEPGRTLEPQELARIAGKVPGLQNEQKRFQLEELRKFGAQFKLQPSSSPENSLDPFPPRILKEEPKGKEKEVDGLLTSEPMGSPVSSKTESVSDKEDKPPLAPSGGTEGPEQPPPPCPSQTGSPPVGLIKGEDKDEGPVAEQVKKSTLNPNAKEFNPTKPLLSVNKSTSTPTSPGPRTHSTPSIPVLTAGQSGLYSPQYISYIPQIHMGPAVQAPQMYPYPVSNSVPGQQGKYRGAKGSLPPQRSDQHQPASAPPMMQAAAAAGPPLVAATPYSSYIPYNPQQFPGQPAMMQPMAHYPSQPVFAPMLQSNPRMLTSGSHPQAIVSSSTPQYPSAEQPTPQALYATVHQSYPHHATQLHAHQPQPATTPTGSQPQSQHAAPSPVQHQAGQAPHLGSGQPQQNLYHPGALTGTPPSLPPGPSAQSPQSSFPQPAAVYAIHHQQLPHGFTNMAHVTQAHVQTGITAAPPPHPGAPHPPQVMLLHPPQSHGGPPQGAVPQSGVPALSASTPSPYPYIGHPQGEQPGQAPGFPGGADDRIREFSLAGGIWHGRAEGLQVGQDARVLGGE

Target: T1, B3GNT2
Test: Co-IP of FLAG-tagged B3GNT2 followed by mass spectrometry
Assay type: cell-based
Set-up: C-term IgG / C-term flag: unit not given here
Protocol: Cells were plated in 10-cm cell culture dishes and grown to 60-80% confluency. For each condition, two biological replicates were harvested for co-IP. Cells were washed with PBS and 4 mL of lysis buffer (20 mM HEPES, 1% Triton X-100, 150 mM NaCl, 1 mM EDTA, and 10% glycerol) containing protease inhibitor cocktail was added. Cells were scraped and lysate was incubated at 4° C. under rotary agitation for 1 h. Lysate was centrifuged at 14,000×g for 10 min at 4° C. Supernatant was transferred to a new tube and an aliquot was taken as the input. […] For Western blots, 10 μg/mL Chicken Anti-FLAG (Aves labs ET-DY100) and IgY control (R&D Systems AB-101-C) antibodies were biotinylated (Thermo Fisher Scientific 90407) and added to the respective conditions. Lysates with antibodies were incubated at 4° C. under rotary agitation overnight. For each mL of lysate, 50 μL of Pierce Protein A/G Magnetic Beads (Mass spectrometry; Thermo Fisher Scientific 88803) or Pierce Streptavidin Magnetic Beads (Western blot; Thermo Fisher Scientific 88817) was washed twice with lysis buffer. Lysates with antibodies were added to the beads and incubated at 4° C. under rotary agitation for 4 h. Beads were washed with lysis buffer 3 times and resuspended in lysis buffer for storage. […] This solution was subjected to solid phase extraction to concentrate the peptides and remove unwanted reagents followed by injection onto a Shimadzu HPLC with fraction collector. Eight fractions were collected and after concentration were injected on a Waters NanoAcquity HPLC equipped with a self-packed Aeris 3 μm C18 analytical column 0.075 mm by 20 cm, (Phenomenex). Peptides were eluted using standard reverse-phase gradients. The effluent from the column was analyzed using a Thermo Orbitrap Elite mass spectrometer (nanospray configuration) operated in a data dependent manner for 54 minutes. […] Scaffold Q+S (Proteome Software) was used to provide consensus reports for the identified proteins.

[1] = Co-IP with FLAG antibody, C-terminally FLAG-tagged B3GNT2, mass spectrometry count, unit not given
[2] = Co-IP with FLAG antibody, N-terminally FLAG-tagged B3GNT2, mass spectrometry count, unit not given
[3] = Co-IP with IgG control antibody, C-terminally FLAG-tagged B3GNT2, mass spectrometry count, unit not given
[4] = Co-IP with IgG control antibody, N-terminally FLAG-tagged B3GNT2, mass spectrometry count, unit not given

| Molecule | C-term flag [1] | N-term FLAG [2] | C-term IgG [3] | N-term IgG [4] | C-term flag (Co-IP followed by mass spectrometry of B3GNT2, C-term tag, FLAG pull-down) | C-term IgG (Co-IP followed by mass spectrometry of B3GNT2, C-term tag, IgG pull-down) | N-term FLAG (Co-IP followed by mass spectrometry of B3GNT2, N-term tag, FLAG pull-down) | N-term IgG (Co-IP followed by mass spectrometry of B3GNT2, N-term tag, IgG pull-down) |
| --- | --- | --- | --- | --- | --- | --- | --- | --- |
| B1 | 7 | 0 | 0 | 0 | – | – | – | – |
| B2 | 2 | 0 | 0 | 0 | – | – | – | – |
| B3 | 4 | 3 | 0 | 0 | – | – | – | – |
| B4 | 4 | 3 | 0 | 0 | – | – | – | – |
| B5 | 0 | 16 | 5 | 3 | – | – | – | – |
| B6 | 9 | 7 | 4 | 4 | – | – | – | – |
| B7 | 3 | 0 | 0 | 0 | – | – | – | – |
| B8 | – | – | – | – | 5 | 2 | 5 | 3 |
